Results: patent US20090010911A1, “METHODS AND COMPOSITIONS FOR AFFECTING CYCLOPHILIN A REGULATION OF KINASES IN MODULATING CELLULAR ACTIVITIES” (IOWA STATE UNIVERSITY RESEARCH FOUNDATION, INC., priority 2007, published 2009)

Target: T1, Itk LKD enzyme (Mus musculus, UniProt Q03526)
T1 construct: linker kinase domain (Itk LKD); made in house; host or cells: Sf9 insect cells (baculovirus), co-infected 1:1 with Lck baculovirus
T1 sequence (Q03526 344-625 limits assumed): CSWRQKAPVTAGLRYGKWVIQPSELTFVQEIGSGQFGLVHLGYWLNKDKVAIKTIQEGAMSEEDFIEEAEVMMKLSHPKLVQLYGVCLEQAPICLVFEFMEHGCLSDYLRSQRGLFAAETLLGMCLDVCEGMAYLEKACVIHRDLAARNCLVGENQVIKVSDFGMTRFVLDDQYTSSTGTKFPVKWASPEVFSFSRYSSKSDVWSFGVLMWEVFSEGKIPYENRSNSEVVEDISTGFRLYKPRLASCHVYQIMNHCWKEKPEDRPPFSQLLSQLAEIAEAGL
Experiment: Quantitative kinase assay, Km determination for Peptide B and PLCγ1 SH2C-Peptide B fusion
Assay type: biochemical
Description: 5(a) Construction of a PLCγ1 SH2C-Peptide B fusion protein was based on alignment of Y783 within the PLCγ1 linker and the Tyr of Peptide B. The 14 amino acids of Peptide B were used to replace the last 16 amino acids of PLCγ1 SH2C-Y783-. The Tyr that is phosphorylated in each substrate is boxed. A mutant construct is also shown that contains serine in place of the tyrosine of peptide B. This site was mutated to serine instead of phenylalanine due to solubility problems associated with the Tyr to Phe mutation. 5(b) FLAG-tagged Itk LKD enzyme (1 μM) was incubated with 20 μM of the PLCγ1 SH2C-Peptide B fusion protein (lane 4) or 20 μM of the PLCγ1 SH2C-Peptide B(YS) mutant protein (lane 5) in an in vitro kinase assay. Lanes 1-3 are Itk enzyme alone, PLCγ1 SH2C-Peptide B substrate alone and PLCγ1 SH2C-Peptide B(YS) substrate alone, respectively, that have each been subjected to the same in vitro kinase assay conditions. (c & d) FLAG-tagged Itk LKD enzyme was incubated with increasing amounts of biotinylated PLCγ1 SH2C-Peptide B 5(c) or biotinylated Peptide B alone 5(d) in an in vitro kinase assay. 5(e) Kinetic parameters describing phosphorylation of Peptide B and the PLCγ1 SH2C-Peptide B fusion protein by Itk. Data shown are the average of two independent experiments.
Kinase assays and Western Blotting—Itk Full-length (FL), linker kinase domain (Itk LKD), kinase domain (Itk KD), full-length Btk or full-length Tec were incubated with the indicated substrates in an in vitro kinase assay buffer (50 mM Hepes pH 7.0, 10 mM MgCl2, 1 mM DTT, 1 mg/ml BSA, 1 mM Pefabloc and 200 μM ATP) for one hour at RT. The samples were boiled, separated by SDS-PAGE and transferred onto a PVDF membrane. The membranes were then blotted with either phosphotyrosine specific antibodies (anti-pY783 for PLCγ1 or pY223 Btk antibody used to detect pY180 in Itk, pY187 in Tec and pY223 in Btk (18)), an anti-phosphotyrosine antibody (4G10 from Upstate), or an anti-FLAG antibody (Sigma) and developed by standard chemiluminescence (Pierce) methods. Quantitative kinase assays (25): Km determinations for Peptide B [(Aminohexanoyl biotin-EQEDEPEGIYGVLF-NH2) (Anaspec Inc.)] and the biotinylated PLCγ1 SH2C-Peptide B fusion were carried out by incubating purified Itk LKD enzyme in reaction buffer (50 mM Hepes pH 7.0, 10 mM MgCl2, 1 mM DTT, 1 mg/ml BSA, 1 mM Pefabloc SC (4-(2-aminoethyl)-benzenesulfonyl-fluoride) and 200 μM ATP) and 5 μCi [^32P] ATP (GE Healthcare) at room temperature. Peptide B concentration was varied between 0-400 μM and PLCγ1 SH2C-Peptide B fusion concentration was varied between 0-80 μM. The enzyme concentration used for kinetic analysis was 0.9 μM. Each assay was done in duplicate. […]

B1: SH2-Peptide B fusion: PLCγ1 SH2C domain covalently linked to the amino terminus of Peptide B, biotinylated fusion protein (protein)
chain: QTNAHESKEWYHASLTRAQAEHMLMRVPRDGAFLVRKRNEPNSYAISFRAEGKIKHCRVQQEGQTVMLGNSEFDSLVDLISYYEKHPLYRKMKLRYPINEEALEKIGTAEPDFGAEQEDEPEGIYGVLF
modifications: left off: things letters cannot carry
notes: PLCγ1 SH2C domain covalently linked to the amino terminus of Peptide B, biotinylated fusion protein
- better substrate (kcat/Km) (compared to Peptide B alone): 7 fold
- increase in substrate affinity (compared to Peptide B alone): 15 fold
- kcat value, change on attachment of PLCγ1 SH2C domain to Peptide B (compared to Peptide B alone): only changed to a small extent
- Km (phosphorylation by Itk LKD enzyme 0.9 μM, 200 μM ATP, room temperature): 5.64 µM
